# Experimental data as given in the RNAGym collection of RNA variant scans (doi:10.1073/pnas.2313332121).
# B1: TPR t1 (parent)
# chain: GACCAAUCUGCCCUCAGAGCUCGAGAACAUCUUCGGAUGCAGAGGAGGCAGGCUUCGGUGGCGCGAUAGCGCCAACGUCCUCAACCUCCAAUGCAUCCCACCACAUGAUGAUGCCUGAAGAGCCUUGGUUUUUUG
# Variants of: B1
# Assay: polymerase ribozyme fitness, log enrichment relative to wild type (log ratio); higher = more active; in vitro selection for triplet polymerase activity
# How it was run: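 After PCR construction and transcription, each subunit's mutant library from a heterodimeric triplet polymerase ribozyme was annealed with a biotinylated primer, the partner subunit and triplets. Incubation was frozen, at −7 °C, and extended constructs were gel-excised, bound to streptavidin beads and amplified by RT-PCR, in one selection round done in triplicate. Fitness is the logarithm of a genotype's enrichment divided by that of the wild type, from inverse-variance-weighted replicate averages of Illumina-sequenced inputs and outputs. The base of the logarithm is 2, and genotypes needed ≥10 input reads and ≥1 read per output.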
row,Variant,polymerase ribozyme fitness (log ratio)
1,U54G U125A U126A,-2
2,G57C U125A,-0.636
3,C70A G110A,-3.53
4,C13G G47U C114A,-4.31
5,G69U U133G,0.15
6,A2G U14C C70U,-2.68
7,C56U C86G A111U U129G,-5.47
8,C12A C53U C73A,-0.585
9,G48U A100C A105C C123U,-4.99
10,G60C C104U U126A,-1.46
11,A18U G25C G57C C89G U92G C115U,-5.83
12,C53U A83C U87C,0.394
13,G63C U125G,-2.2
14,C22U G44C,-4.2
15,G44A G77C,-0.688
16,G57A A66C,-2.98
17,C4U U9A C82A,0.0858
18,C15G U59C C86U U116G,-4.2
19,A2U C20U,-3.71
20,C20U G42C C88G U112A G117A,-6
21,C3U C8A A16U U33A G44A G120C,-6.36
22,C82G C99A C101U A119G,-6.25
23,A6U A68G A75U U92A C123A,-4.87
24,C4G U112A,-0.309

row,Variant,polymerase ribozyme fitness (log ratio)
1,C12U A46U G51U G69U A74U,-3.04
2,G10U C28G G60A C85A U131G,-4.5
3,A6C G113U,-3.54
4,C79G C89U A91C,-4.46
5,C20A C34A A41C G69U C73U,-5.14
6,A43C U87A U106A,-2.43
7,C123A U130A,0.213
8,C53A C72G C88U C123G,1.36
9,A46U A84C,-1.04
10,A46U A84U,-1.28
11,U32G C72U C102U G113A,-7.34
12,C13G C20A C49U C64U U96G,-4.56
13,A41U U87G,-0.681
14,U7G C11U A18C G45U C53A,-2.72
15,G57U G71A,-0.471
16,A46G G61A C80U C94U,-2.56
17,C15U G52A U59A A118U,-2.24
18,A50G A75U C80U U81A C114U U133C,-4.62
19,C89A U132C,-1.96
20,G39U G113U,-3.59
21,C11G C64U C115U U130A,-1.38
22,U7A G17U G117A A118G,-2.58
23,C73U A119G,1.13
24,A6U G10U C13A C22A C49U G63A,-5.88

row,Variant,polymerase ribozyme fitness (log ratio)
1,C15A A74G U78G C79U G110U,-3.12
2,U21C G44A A119G U125G,-1.38
3,A43C C53A C56A C62U,-3.14
4,A46G C49A U112C,1.28
5,A6C U21A A37G A90G G120U G127U,-0.919
6,G10C G19C A43G C72U U112C C123A,-1.54
7,A50G G63U A66G U130A,-4.03
8,G60A C89A,-1.99
9,U78G C86U U133A,-0.63
10,C8U C20A C53U U54A C89G,-4.08
11,C13U G51C C85A C124G,-3.2
12,C20A G57C,-3.31
13,A18C A43U A121G,0.81
14,U7G A18U C101U,-1.59
15,G47U G69C,-3.62
16,A29U C40U G44U C85U C89A C94G,-4.32
17,A6G G48U U54A G127A,-2.59
18,C13G G36U A75G G77A C123U,-0.649
19,G10C U112G,0.149
20,C28G G60U,-2.56
21,A66U U125G,-1.48
22,G71U A91G G93U,-2.17
23,U96G C114A,0.0255
24,C12A C70G,-2.78

row,Variant,polymerase ribozyme fitness (log ratio)
1,C64U C124U U130G,0.174
2,G48U C56G C72A C94A G110C,-5.78
3,G44C U59G C80A,-4.66
4,C11U G69A,-2.2
5,G45C U125A,-1.86
6,U59C A83C C101G C115U U116A,-5.84
7,G93A A95U C102A,-4.21
8,C56G G107A,-5.95
9,G93U U96A,-2.6
10,C72A C79A,-0.505
11,U14G C53U U87A,-2.67
12,G10C A18C C20U C56U,-3.11
13,C22U U38G C73U,-4.47
14,G42U G52A A75G C101U,-0.635
15,C15G G17C,-4.24
16,C13U A41G G60U,-0.254
17,C82U U96A U109C,-5.99
18,C4U G35C C72U G117C C123U U125A,-6.14
19,U87A C123G,1.66
20,G71U U87A,-1.3
21,A5G G45A G69U C104A,-1.05
22,C40U A46U G47A C53G A66C G117C,-7.17
23,G42A G48A G69A,-6.28
24,G52C G120U,-0.715

row,Variant,polymerase ribozyme fitness (log ratio)
1,G48A U130C,-0.486
2,G39U G61U G110U,-2
3,G10A C13U G42C A46G C101U G110C,-6.91
4,C8G C20U G52U C62A,-2.37
5,C8U G69U,0.891
6,A18G C31G C88U C114G,-5.82
7,A41C A43C C72G C88A G93U C99A C102A C124A,-7.15
8,C13G C73U A91C,-2.89
9,G39U C76U C79G,-1.98
10,C72G A90G G110U G135C,-2
11,G36U C64U C123G,0.799
12,C72U A74C,0.54
13,U7C U21C A83G G120A,0.428
14,G52U G58C,-0.674
15,C62A A90G,-0.841
16,G71A G110C,-4.27
17,C20U C73A U81A U96A A121U C124U U134A G135U,-0.843
18,G47U G58C,-0.433
19,A16G G44U G117A,-3.84
20,U81C C86U U116G,-3.1
21,C12G C76U,-0.0382
22,U32A C34G,-6.88
23,A46G G58C C99U C114G,-6.59
24,C3U C56G A83U C85A,-3.16

row,Variant,polymerase ribozyme fitness (log ratio)
1,C20A A27C C62U,-4.63
2,G10U U38G U78A G128A,-3.77
3,G120A G127C G135U,-0.669
4,G60C C124A,1.07
5,C13U C20U U106A G120A,-1.72
6,C8G G69C G113A,-1.36
7,C20G A37G A118U,-3.12
8,C12A C40U C82G U96C C97U,-6.18
9,C53U G63U A90C C104A A121G C123A,-4.29
10,A27C G47U G63A C86U,-6.59
11,C15G A50C,-2.38
12,G77A U112A,0.751
13,G77A U112G,0.316
14,A50C A75G A95C,-0.114
15,C12G A41C,-0.0245
16,A6C C76A C79U,-0.8
17,C34G A46U,-6.06
18,U7G A18G C62U G120C U125A,-2.15
19,C40G G69A,-3.43
20,C49G G60C,-1.97
21,G93U A111G,-0.352
22,C12G A46U C82G,-1.75
23,C8U U14A A41C C64U G93U C115U U125G U132A U133G,-6.39
24,C22U C94A,-4.02

row,Variant,polymerase ribozyme fitness (log ratio)
1,A41U G52A G117U,-4.85
2,C8A G10U U14G C56A C64U U78A C86A C101U,-2.72
3,U55C C85A,-2.73
4,G10A G60C C124A,1.12
5,C15U C28U G44U C62U U87C U106C,-5.37
6,C72G A95U,-1.07
7,C12U C72U U96A C115U,-1.92
8,A18C C20A U54A U96A,-3.05
9,U14G C82U G93C,-2.71
10,A26C A43C A46C C56G C86A A90G C123G,-6.74
11,C76A C99U G120U,-5.6
12,C20A G42U G60A,-3.62
13,A5C C64U G77U G110A,-3.72
14,C40G C86U A100U,-3.33
15,C15U G58A,-1.84
16,G48C G93U U96A A111G,-5.62
17,A5U A18U,-2.62
18,C20A C31G G39U A46U G47A A100C A108U U125A,-6.51
19,U7C A83G A84C,-1.08
20,U14C G77A,-2.6
21,G61U U92A,-2.49
22,G10A A37U G45U C80A G110C,-7.42
23,C13U G23A,-5.12
